US20250218531A1 (ABSCI, published 2025)

B1: Trastuzumab HCDR3 variant ARYGRDYYYFDV (Fab, V domains shown)
VH: EVQLVESGGGLVQPGGSLRLSCAASGFNIKDTYIHWVRQAPGKGLEWVARIYPTNGYTRYADSVKGRFTISADTSKNTAYLQMNSLRAEDTAVYYCARYGRDYYYFDVWGQGTLVTVSS
VL: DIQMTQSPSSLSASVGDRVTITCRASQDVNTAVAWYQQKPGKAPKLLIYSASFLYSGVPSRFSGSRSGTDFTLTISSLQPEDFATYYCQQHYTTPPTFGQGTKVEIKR
B2: Trastuzumab HCDR3 variant ARYQAYDNSYGV (Fab, V domains shown)
VH: EVQLVESGGGLVQPGGSLRLSCAASGFNIKDTYIHWVRQAPGKGLEWVARIYPTNGYTRYADSVKGRFTISADTSKNTAYLQMNSLRAEDTAVYYCARYQAYDNSYGVWGQGTLVTVSS
VL: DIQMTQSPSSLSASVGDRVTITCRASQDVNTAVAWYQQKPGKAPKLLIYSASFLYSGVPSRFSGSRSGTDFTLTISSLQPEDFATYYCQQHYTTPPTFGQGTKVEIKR
B3: Trastuzumab HCDR3 variant ARYHFSGYFMDA (Fab, V domains shown)
VH: EVQLVESGGGLVQPGGSLRLSCAASGFNIKDTYIHWVRQAPGKGLEWVARIYPTNGYTRYADSVKGRFTISADTSKNTAYLQMNSLRAEDTAVYYCARYHFSGYFMDAWGQGTLVTVSS
VL: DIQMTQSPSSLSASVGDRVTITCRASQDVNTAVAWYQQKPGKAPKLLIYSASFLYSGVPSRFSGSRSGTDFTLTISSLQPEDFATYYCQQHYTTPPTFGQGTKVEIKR
B4: Trastuzumab HCDR3 variant ARYGVYGYAMDY (Fab, V domains shown)
VH: EVQLVESGGGLVQPGGSLRLSCAASGFNIKDTYIHWVRQAPGKGLEWVARIYPTNGYTRYADSVKGRFTISADTSKNTAYLQMNSLRAEDTAVYYCARYGVYGYAMDYWGQGTLVTVSS
VL: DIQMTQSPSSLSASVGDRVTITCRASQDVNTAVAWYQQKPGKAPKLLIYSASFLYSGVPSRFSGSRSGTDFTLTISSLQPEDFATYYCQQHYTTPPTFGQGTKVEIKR
B5: Trastuzumab HCDR3 variant ARYGSGYYGLDY (Fab, V domains shown)
VH: EVQLVESGGGLVQPGGSLRLSCAASGFNIKDTYIHWVRQAPGKGLEWVARIYPTNGYTRYADSVKGRFTISADTSKNTAYLQMNSLRAEDTAVYYCARYGSGYYGLDYWGQGTLVTVSS
VL: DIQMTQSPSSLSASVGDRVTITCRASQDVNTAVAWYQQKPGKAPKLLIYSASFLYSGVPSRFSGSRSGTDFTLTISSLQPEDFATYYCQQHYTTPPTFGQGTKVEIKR
B6: Trastuzumab HCDR3 variant ARYLSYSYAWNY (Fab, V domains shown)
VH: EVQLVESGGGLVQPGGSLRLSCAASGFNIKDTYIHWVRQAPGKGLEWVARIYPTNGYTRYADSVKGRFTISADTSKNTAYLQMNSLRAEDTAVYYCARYLSYSYAWNYWGQGTLVTVSS
VL: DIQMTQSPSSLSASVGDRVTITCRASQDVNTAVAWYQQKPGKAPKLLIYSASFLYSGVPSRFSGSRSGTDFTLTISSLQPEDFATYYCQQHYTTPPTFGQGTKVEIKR
B7: Trastuzumab HCDR3 variant ASYMGIVGYYPG (Fab, V domains shown)
VH: EVQLVESGGGLVQPGGSLRLSCAASGFNIKDTYIHWVRQAPGKGLEWVARIYPTNGYTRYADSVKGRFTISADTSKNTAYLQMNSLRAEDTAVYYCASYMGIVGYYPGWGQGTLVTVSS
VL: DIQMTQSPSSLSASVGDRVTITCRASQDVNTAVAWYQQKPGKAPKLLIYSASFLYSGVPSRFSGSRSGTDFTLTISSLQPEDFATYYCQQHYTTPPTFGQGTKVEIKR
B8: Trastuzumab HCDR3 variant ARYGYYGYWFDY (Fab, V domains shown)
VH: EVQLVESGGGLVQPGGSLRLSCAASGFNIKDTYIHWVRQAPGKGLEWVARIYPTNGYTRYADSVKGRFTISADTSKNTAYLQMNSLRAEDTAVYYCARYGYYGYWFDYWGQGTLVTVSS
VL: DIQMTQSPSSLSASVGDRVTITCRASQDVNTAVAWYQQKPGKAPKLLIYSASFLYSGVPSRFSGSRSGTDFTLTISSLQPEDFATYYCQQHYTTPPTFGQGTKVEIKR
B9: Trastuzumab HCDR3 variant ARYYGYYYYMDY (Fab, V domains shown)
VH: EVQLVESGGGLVQPGGSLRLSCAASGFNIKDTYIHWVRQAPGKGLEWVARIYPTNGYTRYADSVKGRFTISADTSKNTAYLQMNSLRAEDTAVYYCARYYGYYYYMDYWGQGTLVTVSS
VL: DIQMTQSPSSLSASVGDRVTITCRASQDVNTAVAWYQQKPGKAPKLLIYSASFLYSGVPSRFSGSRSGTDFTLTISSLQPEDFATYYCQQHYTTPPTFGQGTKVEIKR
B10: Trastuzumab HCDR3 variant ARYYGGLYYFDY (Fab, V domains shown)
VH: EVQLVESGGGLVQPGGSLRLSCAASGFNIKDTYIHWVRQAPGKGLEWVARIYPTNGYTRYADSVKGRFTISADTSKNTAYLQMNSLRAEDTAVYYCARYYGGLYYFDYWGQGTLVTVSS
VL: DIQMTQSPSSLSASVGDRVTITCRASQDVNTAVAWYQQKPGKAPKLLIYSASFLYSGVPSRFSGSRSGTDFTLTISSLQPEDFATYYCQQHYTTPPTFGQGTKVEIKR
B11: Trastuzumab HCDR3 variant ARYLSYSFAWDY (Fab, V domains shown)
VH: EVQLVESGGGLVQPGGSLRLSCAASGFNIKDTYIHWVRQAPGKGLEWVARIYPTNGYTRYADSVKGRFTISADTSKNTAYLQMNSLRAEDTAVYYCARYLSYSFAWDYWGQGTLVTVSS
VL: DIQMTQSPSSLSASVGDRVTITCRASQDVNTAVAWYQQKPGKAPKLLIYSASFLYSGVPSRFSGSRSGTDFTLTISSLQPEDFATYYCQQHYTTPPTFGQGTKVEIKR
B12: Trastuzumab HCDR3 variant ARYYYSGYYMSV (Fab, V domains shown)
VH: EVQLVESGGGLVQPGGSLRLSCAASGFNIKDTYIHWVRQAPGKGLEWVARIYPTNGYTRYADSVKGRFTISADTSKNTAYLQMNSLRAEDTAVYYCARYYYSGYYMSVWGQGTLVTVSS
VL: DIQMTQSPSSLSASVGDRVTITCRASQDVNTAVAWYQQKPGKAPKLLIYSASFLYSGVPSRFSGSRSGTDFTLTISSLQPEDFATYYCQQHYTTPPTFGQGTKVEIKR
B13: Trastuzumab HCDR3 variant ARYLEYTYAWDY (Fab, V domains shown)
VH: EVQLVESGGGLVQPGGSLRLSCAASGFNIKDTYIHWVRQAPGKGLEWVARIYPTNGYTRYADSVKGRFTISADTSKNTAYLQMNSLRAEDTAVYYCARYLEYTYAWDYWGQGTLVTVSS
VL: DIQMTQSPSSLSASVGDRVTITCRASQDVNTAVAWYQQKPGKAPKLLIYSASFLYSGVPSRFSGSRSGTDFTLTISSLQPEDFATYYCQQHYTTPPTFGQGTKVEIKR
B14: Trastuzumab HCDR3 variant ARYYDDTIYSFY (Fab, V domains shown)
VH: EVQLVESGGGLVQPGGSLRLSCAASGFNIKDTYIHWVRQAPGKGLEWVARIYPTNGYTRYADSVKGRFTISADTSKNTAYLQMNSLRAEDTAVYYCARYYDDTIYSFYWGQGTLVTVSS
VL: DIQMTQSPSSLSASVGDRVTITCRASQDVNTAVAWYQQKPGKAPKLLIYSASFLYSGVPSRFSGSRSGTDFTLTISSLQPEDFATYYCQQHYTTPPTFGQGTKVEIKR
B15: Trastuzumab HCDR3 variant ARYPYGYYAMDY (Fab, V domains shown)
VH: EVQLVESGGGLVQPGGSLRLSCAASGFNIKDTYIHWVRQAPGKGLEWVARIYPTNGYTRYADSVKGRFTISADTSKNTAYLQMNSLRAEDTAVYYCARYPYGYYAMDYWGQGTLVTVSS
VL: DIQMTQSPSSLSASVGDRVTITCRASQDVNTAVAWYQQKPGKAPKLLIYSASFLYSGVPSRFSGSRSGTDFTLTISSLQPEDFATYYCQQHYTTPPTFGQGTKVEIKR
B16: Trastuzumab HCDR3 variant ATGPYTVYSYPY (Fab, V domains shown)
VH: EVQLVESGGGLVQPGGSLRLSCAASGFNIKDTYIHWVRQAPGKGLEWVARIYPTNGYTRYADSVKGRFTISADTSKNTAYLQMNSLRAEDTAVYYCATGPYTVYSYPYWGQGTLVTVSS
VL: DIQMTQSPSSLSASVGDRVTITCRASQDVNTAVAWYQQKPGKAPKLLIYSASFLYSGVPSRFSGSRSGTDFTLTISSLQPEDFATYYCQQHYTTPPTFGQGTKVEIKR
B17: Trastuzumab HCDR3 variant ASGDLTAGSSQT (Fab, V domains shown)
VH: EVQLVESGGGLVQPGGSLRLSCAASGFNIKDTYIHWVRQAPGKGLEWVARIYPTNGYTRYADSVKGRFTISADTSKNTAYLQMNSLRAEDTAVYYCASGDLTAGSSQTWGQGTLVTVSS
VL: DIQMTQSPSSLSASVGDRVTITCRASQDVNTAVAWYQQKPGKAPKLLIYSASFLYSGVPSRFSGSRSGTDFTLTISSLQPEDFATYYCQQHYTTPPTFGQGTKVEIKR
B18: Trastuzumab HCDR3 variant ARYPEDFYYFDV (Fab, V domains shown)
VH: EVQLVESGGGLVQPGGSLRLSCAASGFNIKDTYIHWVRQAPGKGLEWVARIYPTNGYTRYADSVKGRFTISADTSKNTAYLQMNSLRAEDTAVYYCARYPEDFYYFDVWGQGTLVTVSS
VL: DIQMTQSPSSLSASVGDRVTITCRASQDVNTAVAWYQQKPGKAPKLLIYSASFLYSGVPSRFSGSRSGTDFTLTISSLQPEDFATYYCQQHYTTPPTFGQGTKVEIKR
B19: Trastuzumab HCDR3 variant ATNAFGLWSYGF (Fab, V domains shown)
VH: EVQLVESGGGLVQPGGSLRLSCAASGFNIKDTYIHWVRQAPGKGLEWVARIYPTNGYTRYADSVKGRFTISADTSKNTAYLQMNSLRAEDTAVYYCATNAFGLWSYGFWGQGTLVTVSS
VL: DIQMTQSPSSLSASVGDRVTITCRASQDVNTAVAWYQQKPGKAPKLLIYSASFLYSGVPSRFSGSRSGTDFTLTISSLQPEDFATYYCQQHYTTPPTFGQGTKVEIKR
B20: Trastuzumab HCDR3 variant ARYGTYGYAMDY (Fab, V domains shown)
VH: EVQLVESGGGLVQPGGSLRLSCAASGFNIKDTYIHWVRQAPGKGLEWVARIYPTNGYTRYADSVKGRFTISADTSKNTAYLQMNSLRAEDTAVYYCARYGTYGYAMDYWGQGTLVTVSS
VL: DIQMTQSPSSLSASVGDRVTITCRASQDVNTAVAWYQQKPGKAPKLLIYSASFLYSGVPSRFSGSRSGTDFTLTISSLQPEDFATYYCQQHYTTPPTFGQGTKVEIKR
B21: Trastuzumab HCDR3 variant ARYHNTGYFWGA (Fab, V domains shown)
VH: EVQLVESGGGLVQPGGSLRLSCAASGFNIKDTYIHWVRQAPGKGLEWVARIYPTNGYTRYADSVKGRFTISADTSKNTAYLQMNSLRAEDTAVYYCARYHNTGYFWGAWGQGTLVTVSS
VL: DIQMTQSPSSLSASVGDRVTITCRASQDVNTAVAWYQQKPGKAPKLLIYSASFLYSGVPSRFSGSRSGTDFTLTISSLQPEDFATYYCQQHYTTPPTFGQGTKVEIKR
B22: Trastuzumab HCDR3 variant ARYHYSGYFMDS (Fab, V domains shown)
VH: EVQLVESGGGLVQPGGSLRLSCAASGFNIKDTYIHWVRQAPGKGLEWVARIYPTNGYTRYADSVKGRFTISADTSKNTAYLQMNSLRAEDTAVYYCARYHYSGYFMDSWGQGTLVTVSS
VL: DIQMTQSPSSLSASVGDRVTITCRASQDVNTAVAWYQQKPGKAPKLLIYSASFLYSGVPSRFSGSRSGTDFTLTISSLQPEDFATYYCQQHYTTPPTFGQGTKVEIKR
B23: Trastuzumab HCDR3 variant ARYLSYSYAWDN (Fab, V domains shown)
VH: EVQLVESGGGLVQPGGSLRLSCAASGFNIKDTYIHWVRQAPGKGLEWVARIYPTNGYTRYADSVKGRFTISADTSKNTAYLQMNSLRAEDTAVYYCARYLSYSYAWDNWGQGTLVTVSS
VL: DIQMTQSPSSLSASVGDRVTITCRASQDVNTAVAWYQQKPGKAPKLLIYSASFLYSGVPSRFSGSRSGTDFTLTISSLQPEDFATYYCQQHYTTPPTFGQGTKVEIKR
B24: Trastuzumab HCDR3 variant SRWYGDYFAMDY (Fab, V domains shown)
VH: EVQLVESGGGLVQPGGSLRLSCAASGFNIKDTYIHWVRQAPGKGLEWVARIYPTNGYTRYADSVKGRFTISADTSKNTAYLQMNSLRAEDTAVYYCSRWYGDYFAMDYWGQGTLVTVSS
VL: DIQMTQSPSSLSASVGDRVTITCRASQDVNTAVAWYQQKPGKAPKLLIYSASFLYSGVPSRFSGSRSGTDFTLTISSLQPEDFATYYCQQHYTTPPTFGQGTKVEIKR
B25: Trastuzumab HCDR3 variant TLNGPLYWMWTL (Fab, V domains shown)
VH: EVQLVESGGGLVQPGGSLRLSCAASGFNIKDTYIHWVRQAPGKGLEWVARIYPTNGYTRYADSVKGRFTISADTSKNTAYLQMNSLRAEDTAVYYCTLNGPLYWMWTLWGQGTLVTVSS
VL: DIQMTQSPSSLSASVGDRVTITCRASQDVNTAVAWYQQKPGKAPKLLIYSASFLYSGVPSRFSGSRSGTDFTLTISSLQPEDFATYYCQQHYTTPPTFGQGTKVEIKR
B26: Trastuzumab HCDR3 variant SIYGTDYYWFAD (Fab, V domains shown)
VH: EVQLVESGGGLVQPGGSLRLSCAASGFNIKDTYIHWVRQAPGKGLEWVARIYPTNGYTRYADSVKGRFTISADTSKNTAYLQMNSLRAEDTAVYYCSIYGTDYYWFADWGQGTLVTVSS
VL: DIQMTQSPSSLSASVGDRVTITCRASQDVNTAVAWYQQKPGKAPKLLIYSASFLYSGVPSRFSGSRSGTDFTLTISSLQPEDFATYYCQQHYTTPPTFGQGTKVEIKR
B27: Trastuzumab HCDR3 variant ARYSYGAFYYSI (Fab, V domains shown)
VH: EVQLVESGGGLVQPGGSLRLSCAASGFNIKDTYIHWVRQAPGKGLEWVARIYPTNGYTRYADSVKGRFTISADTSKNTAYLQMNSLRAEDTAVYYCARYSYGAFYYSIWGQGTLVTVSS
VL: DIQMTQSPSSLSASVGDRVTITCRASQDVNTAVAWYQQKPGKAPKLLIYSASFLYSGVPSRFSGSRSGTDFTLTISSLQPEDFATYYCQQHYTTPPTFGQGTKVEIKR
B28: Trastuzumab HCDR3 variant ARYWYGSYVFDY (Fab, V domains shown)
VH: EVQLVESGGGLVQPGGSLRLSCAASGFNIKDTYIHWVRQAPGKGLEWVARIYPTNGYTRYADSVKGRFTISADTSKNTAYLQMNSLRAEDTAVYYCARYWYGSYVFDYWGQGTLVTVSS
VL: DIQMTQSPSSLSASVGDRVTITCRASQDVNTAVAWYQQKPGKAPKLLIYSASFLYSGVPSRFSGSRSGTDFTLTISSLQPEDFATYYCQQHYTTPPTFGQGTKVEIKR
B29: Trastuzumab HCDR3 variant ASYYDYYYAFGT (Fab, V domains shown)
VH: EVQLVESGGGLVQPGGSLRLSCAASGFNIKDTYIHWVRQAPGKGLEWVARIYPTNGYTRYADSVKGRFTISADTSKNTAYLQMNSLRAEDTAVYYCASYYDYYYAFGTWGQGTLVTVSS
VL: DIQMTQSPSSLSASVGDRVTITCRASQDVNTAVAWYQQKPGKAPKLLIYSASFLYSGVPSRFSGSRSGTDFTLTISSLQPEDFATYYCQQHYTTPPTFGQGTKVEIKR
B30: Trastuzumab HCDR3 variant ARYYVGYYAMDY (Fab, V domains shown)
VH: EVQLVESGGGLVQPGGSLRLSCAASGFNIKDTYIHWVRQAPGKGLEWVARIYPTNGYTRYADSVKGRFTISADTSKNTAYLQMNSLRAEDTAVYYCARYYVGYYAMDYWGQGTLVTVSS
VL: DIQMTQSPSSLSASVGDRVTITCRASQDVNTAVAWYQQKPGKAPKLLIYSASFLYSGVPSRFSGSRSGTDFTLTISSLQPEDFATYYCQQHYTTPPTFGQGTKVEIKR
B31: Trastuzumab HCDR3 variant ARYLSYSYAWDY (Fab, V domains shown)
VH: EVQLVESGGGLVQPGGSLRLSCAASGFNIKDTYIHWVRQAPGKGLEWVARIYPTNGYTRYADSVKGRFTISADTSKNTAYLQMNSLRAEDTAVYYCARYLSYSYAWDYWGQGTLVTVSS
VL: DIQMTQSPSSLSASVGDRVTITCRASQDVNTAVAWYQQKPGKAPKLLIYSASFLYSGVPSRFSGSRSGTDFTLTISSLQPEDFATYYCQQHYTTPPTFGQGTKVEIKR
B32: Trastuzumab HCDR3 variant ARYPDYYYAMDY (Fab, V domains shown)
VH: EVQLVESGGGLVQPGGSLRLSCAASGFNIKDTYIHWVRQAPGKGLEWVARIYPTNGYTRYADSVKGRFTISADTSKNTAYLQMNSLRAEDTAVYYCARYPDYYYAMDYWGQGTLVTVSS
VL: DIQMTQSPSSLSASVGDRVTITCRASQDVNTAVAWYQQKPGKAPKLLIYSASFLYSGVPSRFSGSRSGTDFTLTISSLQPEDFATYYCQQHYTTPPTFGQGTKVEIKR

The binders below were run against human epidermal growth factor receptor 2 (HER2) extracellular domain (human, UniProt P04626 23-629) (assay: SPR).
B1 was tested, and the Kd was 106 nM and the “log(KD (M))” value was -6.97 log(M).
In the case of B2, the Kd is reported as 102 nM and the “log(KD (M))” value is reported as -6.99 log(M).
With B3 the Kd was 103 nM and the “log(KD (M))” value was -6.99 log(M).
With B4 the Kd was 53.3 nM and the “log(KD (M))” value was -7.27 log(M).
For B5, the Kd was 51.5 nM and the “log(KD (M))” value was -7.29 log(M).
In the case of B6, the Kd is reported as 28.9 nM and the “log(KD (M))” value is reported as -7.54 log(M).
With B7 the Kd was 62.3 nM and the “log(KD (M))” value was -7.21 log(M).
B8 was tested, and the Kd was 59.4 nM and the “log(KD (M))” value was -7.23 log(M).
With B9 the Kd was 74.3 nM and the “log(KD (M))” value was -7.13 log(M).
With B10 the Kd was 34.4 nM and the “log(KD (M))” value was -7.46 log(M).
B11 was tested, and the Kd was 59.9 nM and the “log(KD (M))” value was -7.22 log(M).
For B12, the Kd was 85.2 nM and the “log(KD (M))” value was -7.07 log(M).
For B13, the Kd was 218 nM and the “log(KD (M))” value was -6.66 log(M).
In the case of B14, the Kd is reported as 29.9 nM and the “log(KD (M))” value is reported as -7.53 log(M).
B15 was tested, and the Kd was 78.1 nM and the “log(KD (M))” value was -7.11 log(M).
B16 was tested, and the Kd was 120 nM and the “log(KD (M))” value was -6.92 log(M).
In the case of B17, the Kd is reported as 219 nM and the “log(KD (M))” value is reported as -6.66 log(M).
For B18, the Kd was 40.2 nM and the “log(KD (M))” value was -7.4 log(M).
With B19 the Kd was 52.8 nM and the “log(KD (M))” value was -7.28 log(M).
With B20 the Kd was 65.5 nM and the “log(KD (M))” value was -7.18 log(M).
B21 was tested, and the Kd was 61 nM and the “log(KD (M))” value was -7.22 log(M).
With B22 the Kd was 113 nM and the “log(KD (M))” value was -6.95 log(M).
With B23 the Kd was 42.6 nM and the “log(KD (M))” value was -7.37 log(M).
For B24, the Kd was 51.8 nM and the “log(KD (M))” value was -7.29 log(M).
For B25, the Kd was 116 nM and the “log(KD (M))” value was -6.94 log(M).
For B26, the Kd was 50.4 nM and the “log(KD (M))” value was -7.3 log(M).
For B27, the Kd was 70.4 nM and the “log(KD (M))” value was -7.15 log(M).
With B28 the Kd was 78.3 nM and the “log(KD (M))” value was -7.11 log(M).
For B29, the Kd was 36.1 nM and the “log(KD (M))” value was -7.44 log(M).
B30 was tested, and the Kd was 71.6 nM and the “log(KD (M))” value was -7.15 log(M).
For B31, the Kd was 54.8 nM and the “log(KD (M))” value was -7.26 log(M).
In the case of B32, the Kd is reported as 117 nM and the “log(KD (M))” value is reported as -6.93 log(M).
